For assay [1], the target named is K18 ΔK280 tau oligomers, dual-labeled (tau-AF488/AF647 coaggregates). In words: single-molecule TIRF microscopy colocalisation; dual-labeled tau oligomers produced (heparin, 45 min, 37 °C) in the presence of 2 uM Hsp70-AF405 (1:5 Hsp70/tau), diluted into 0.05 M ammonium acetate pH 7 to 50–200 pM tau, adsorbed onto a glass cover slide for 15 min.
For assay [2], the target named is K18 ΔK280 tau-AF488 oligomers, large (10-mers and higher, apparent size). In words: FRET or BRET; smFRET saturation binding, pseudo-equilibrium, apparent constants; 100 nM tau-AF488 oligomers or 1200 nM fibrils (initial monomer concentration; donor) mixed with 0.5 nM to 10 uM Hsp70-AF647 (acceptor), 5 min on ice, then diluted to 200 pM tau and read on a confocal setup; oligomer size classes by fluorescence intensity. (Bioluminescence resonance energy transfer reports proximity on the nanometre scale.)

For assay [3], the target named is K18 ΔK280 tau-AF488 fibrils. Described as above.

Regarding “Hsp70 labeled with Alexa Fluor 405 (from UniProt P0DMV8 1-641) (natural protein)”, in assay [1], the stoichiometry N (Hsp70 molecules per tau monomer) worked out at 0.5.
For the substance “Hsp70 labeled with Alexa Fluor 647 (from UniProt P0DMV8 1-641) (natural protein)”, the Kd in assay [2] came out at 170 nM; in assay [3], 19 nM.
